Measured values: PMC9365671
Like-named read-outs stand apart in the source and are kept apart here.

What was measured:
[1] = molecular target: KIF5C-KLC1 heterotetramer (human) (UniProt O60282)
[2] = molecular target: taxol-stabilised microtubules of porcine brain tubulin (porcine) (UniProt P02550); test: single-molecule TIRF microscopy on microtubules; biotinylated taxol-stabilised MTs held on streptavidin-coated glass, motor in solution; 90 mM HEPES-KOH pH 7.6, 50 mM KCH3COO, 2 mM Mg(CH3COO)2, 1 mM EGTA, 10% glycerol, 2 mM ATP; landing rate = processive and non-processive events per MT length, time and motor concentration; design: landing rate: unit not given here
[3] = molecular target: taxol-stabilised microtubules of porcine brain tubulin (porcine) (UniProt P02550); test: as above

KIF5C-KLC1 heterotetramer (human), sequence (O60282 whole entry, chain 1 of 2): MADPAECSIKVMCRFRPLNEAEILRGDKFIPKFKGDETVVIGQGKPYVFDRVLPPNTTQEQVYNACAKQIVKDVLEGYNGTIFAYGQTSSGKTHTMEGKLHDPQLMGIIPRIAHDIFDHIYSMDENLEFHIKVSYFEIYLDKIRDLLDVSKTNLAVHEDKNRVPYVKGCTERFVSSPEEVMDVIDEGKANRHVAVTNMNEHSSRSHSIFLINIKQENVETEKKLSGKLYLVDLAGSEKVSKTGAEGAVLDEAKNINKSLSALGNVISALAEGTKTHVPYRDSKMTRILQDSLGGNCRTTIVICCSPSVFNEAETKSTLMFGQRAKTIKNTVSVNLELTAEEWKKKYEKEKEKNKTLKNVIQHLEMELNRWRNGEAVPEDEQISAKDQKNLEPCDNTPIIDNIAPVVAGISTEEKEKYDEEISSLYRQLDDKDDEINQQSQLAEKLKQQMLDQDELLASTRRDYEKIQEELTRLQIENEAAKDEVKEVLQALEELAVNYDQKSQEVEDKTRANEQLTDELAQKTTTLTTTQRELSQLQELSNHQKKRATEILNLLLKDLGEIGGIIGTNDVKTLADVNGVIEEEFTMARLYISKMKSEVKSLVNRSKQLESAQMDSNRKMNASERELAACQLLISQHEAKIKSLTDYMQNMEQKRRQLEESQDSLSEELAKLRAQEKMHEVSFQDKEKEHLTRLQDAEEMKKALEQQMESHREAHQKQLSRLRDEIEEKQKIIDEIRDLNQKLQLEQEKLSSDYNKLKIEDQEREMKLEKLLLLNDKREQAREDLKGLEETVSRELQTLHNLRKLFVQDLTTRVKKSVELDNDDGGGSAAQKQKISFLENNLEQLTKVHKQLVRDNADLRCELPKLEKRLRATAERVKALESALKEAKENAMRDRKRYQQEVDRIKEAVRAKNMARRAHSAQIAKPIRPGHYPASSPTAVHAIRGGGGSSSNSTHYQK
KIF5C-KLC1 heterotetramer (human), sequence (Q07866 whole entry, chain 2 of 2, further chain): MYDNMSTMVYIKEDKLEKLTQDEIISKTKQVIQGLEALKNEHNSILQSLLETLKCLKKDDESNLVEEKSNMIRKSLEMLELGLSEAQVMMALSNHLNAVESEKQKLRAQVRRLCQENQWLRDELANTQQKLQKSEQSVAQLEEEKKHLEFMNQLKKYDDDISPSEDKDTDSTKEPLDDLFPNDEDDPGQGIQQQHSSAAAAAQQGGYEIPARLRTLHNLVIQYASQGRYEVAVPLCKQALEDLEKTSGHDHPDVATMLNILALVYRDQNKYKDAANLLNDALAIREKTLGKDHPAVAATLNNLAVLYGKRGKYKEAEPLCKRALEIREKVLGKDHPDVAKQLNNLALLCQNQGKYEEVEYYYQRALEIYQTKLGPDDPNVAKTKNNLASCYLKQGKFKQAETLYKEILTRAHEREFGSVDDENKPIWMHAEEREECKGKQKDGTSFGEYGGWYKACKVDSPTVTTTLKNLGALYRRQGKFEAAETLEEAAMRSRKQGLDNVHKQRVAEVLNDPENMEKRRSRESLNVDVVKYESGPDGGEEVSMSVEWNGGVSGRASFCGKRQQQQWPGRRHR
tail-truncated human KIF5C (aa 1-416)-mScarlet-StrepII, sequence (O60282 1-416): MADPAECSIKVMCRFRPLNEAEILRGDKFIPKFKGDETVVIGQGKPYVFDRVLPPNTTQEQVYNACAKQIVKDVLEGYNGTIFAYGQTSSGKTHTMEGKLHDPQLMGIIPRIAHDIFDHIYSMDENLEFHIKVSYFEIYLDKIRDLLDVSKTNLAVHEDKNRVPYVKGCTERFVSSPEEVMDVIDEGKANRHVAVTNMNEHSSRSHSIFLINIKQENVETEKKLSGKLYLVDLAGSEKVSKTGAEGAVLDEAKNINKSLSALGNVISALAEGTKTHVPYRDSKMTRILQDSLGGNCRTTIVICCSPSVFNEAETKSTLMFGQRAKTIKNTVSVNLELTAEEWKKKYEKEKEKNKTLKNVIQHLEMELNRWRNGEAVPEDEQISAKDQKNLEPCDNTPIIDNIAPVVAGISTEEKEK
tail-truncated human KIF5A (aa 1-416)-mScarlet-StrepII, sequence (Q12840 1-416): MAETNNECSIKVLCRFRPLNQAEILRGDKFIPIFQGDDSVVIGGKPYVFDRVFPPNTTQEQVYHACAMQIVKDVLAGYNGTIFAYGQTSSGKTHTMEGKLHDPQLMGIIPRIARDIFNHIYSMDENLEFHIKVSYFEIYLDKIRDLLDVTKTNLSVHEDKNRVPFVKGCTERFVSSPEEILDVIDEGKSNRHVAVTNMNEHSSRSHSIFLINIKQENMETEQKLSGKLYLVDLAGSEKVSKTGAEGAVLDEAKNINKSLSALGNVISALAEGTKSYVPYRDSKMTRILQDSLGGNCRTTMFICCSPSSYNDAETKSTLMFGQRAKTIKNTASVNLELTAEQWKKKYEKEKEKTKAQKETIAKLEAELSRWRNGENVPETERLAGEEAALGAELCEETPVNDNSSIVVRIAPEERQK
tail-truncated human KIF5B (aa 1-420)-mScarlet-StrepII, sequence (P33176 1-420): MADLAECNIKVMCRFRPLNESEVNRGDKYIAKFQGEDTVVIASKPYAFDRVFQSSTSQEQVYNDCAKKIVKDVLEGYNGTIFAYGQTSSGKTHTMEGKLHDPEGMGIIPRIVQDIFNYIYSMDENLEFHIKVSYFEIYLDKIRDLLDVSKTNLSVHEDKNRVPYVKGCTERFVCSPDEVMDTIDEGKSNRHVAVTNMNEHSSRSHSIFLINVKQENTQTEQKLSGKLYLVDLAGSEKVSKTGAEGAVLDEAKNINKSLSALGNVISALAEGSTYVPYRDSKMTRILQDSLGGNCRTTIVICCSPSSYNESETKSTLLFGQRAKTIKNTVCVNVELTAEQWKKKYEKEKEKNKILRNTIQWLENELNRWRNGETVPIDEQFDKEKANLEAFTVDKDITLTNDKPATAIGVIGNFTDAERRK
full-length human KIF5B-mScarlet-StrepII, sequence (P33176 whole entry): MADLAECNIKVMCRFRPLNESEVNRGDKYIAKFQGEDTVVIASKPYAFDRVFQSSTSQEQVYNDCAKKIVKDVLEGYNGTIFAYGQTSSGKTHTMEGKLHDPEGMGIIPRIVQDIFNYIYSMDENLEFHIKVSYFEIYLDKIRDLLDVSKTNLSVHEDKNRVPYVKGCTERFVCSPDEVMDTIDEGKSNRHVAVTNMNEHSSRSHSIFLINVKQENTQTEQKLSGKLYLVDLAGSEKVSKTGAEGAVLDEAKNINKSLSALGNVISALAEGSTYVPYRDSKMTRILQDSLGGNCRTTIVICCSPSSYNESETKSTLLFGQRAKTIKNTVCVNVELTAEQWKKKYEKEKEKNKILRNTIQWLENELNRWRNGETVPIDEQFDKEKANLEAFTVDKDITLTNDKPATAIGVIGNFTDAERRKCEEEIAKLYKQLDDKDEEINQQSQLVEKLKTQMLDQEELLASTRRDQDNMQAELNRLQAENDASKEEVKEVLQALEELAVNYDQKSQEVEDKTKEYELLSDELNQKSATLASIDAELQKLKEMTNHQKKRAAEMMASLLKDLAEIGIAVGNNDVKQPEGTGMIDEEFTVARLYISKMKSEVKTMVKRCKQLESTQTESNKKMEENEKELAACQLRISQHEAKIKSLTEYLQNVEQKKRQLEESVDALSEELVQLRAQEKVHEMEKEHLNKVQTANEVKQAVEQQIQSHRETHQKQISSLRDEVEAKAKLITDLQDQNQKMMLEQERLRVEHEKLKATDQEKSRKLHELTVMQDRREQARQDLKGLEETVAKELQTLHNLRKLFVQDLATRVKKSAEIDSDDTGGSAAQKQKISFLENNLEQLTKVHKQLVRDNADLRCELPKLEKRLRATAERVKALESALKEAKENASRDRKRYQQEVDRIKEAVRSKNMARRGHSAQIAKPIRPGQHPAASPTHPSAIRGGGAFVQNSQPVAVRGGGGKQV
KIF5B-IAK/AAA-mScarlet-StrepII, sequence (P33176 whole entry I920A/K922A): as the sequence (P33176 whole entry) above, with I920A, K922A counted along it
KIF5B-Δhinge (Δ505-610)-mScarlet-StrepII, sequence (P33176 other isoform, or with tags, fused parts or gaps mutant): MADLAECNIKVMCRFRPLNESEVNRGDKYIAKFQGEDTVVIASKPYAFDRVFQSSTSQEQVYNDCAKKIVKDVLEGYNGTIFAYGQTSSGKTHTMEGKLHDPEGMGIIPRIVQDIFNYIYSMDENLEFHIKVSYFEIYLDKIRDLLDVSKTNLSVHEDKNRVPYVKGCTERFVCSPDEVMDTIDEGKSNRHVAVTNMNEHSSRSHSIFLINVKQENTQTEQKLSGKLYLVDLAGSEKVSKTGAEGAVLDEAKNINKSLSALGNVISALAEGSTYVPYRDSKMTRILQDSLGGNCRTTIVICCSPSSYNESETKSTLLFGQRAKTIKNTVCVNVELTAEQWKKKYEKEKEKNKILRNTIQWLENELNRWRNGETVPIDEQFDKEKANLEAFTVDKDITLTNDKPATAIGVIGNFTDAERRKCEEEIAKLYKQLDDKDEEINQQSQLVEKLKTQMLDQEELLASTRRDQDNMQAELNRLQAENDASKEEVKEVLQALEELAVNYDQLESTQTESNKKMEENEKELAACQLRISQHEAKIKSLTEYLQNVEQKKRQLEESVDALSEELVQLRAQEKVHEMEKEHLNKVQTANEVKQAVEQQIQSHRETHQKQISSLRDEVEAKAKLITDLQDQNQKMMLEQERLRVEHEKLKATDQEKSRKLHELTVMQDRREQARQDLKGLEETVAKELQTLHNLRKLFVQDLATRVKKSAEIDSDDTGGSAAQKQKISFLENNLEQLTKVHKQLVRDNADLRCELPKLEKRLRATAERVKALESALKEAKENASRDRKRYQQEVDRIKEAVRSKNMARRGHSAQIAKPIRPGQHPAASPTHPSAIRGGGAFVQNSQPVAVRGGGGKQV

In the case of “6xHis-2xStrepII-sfGFP-nesprin-4 (aa 1-240) WD/AA (from UniProt Q8N205-2 1-240) (domain or fragment)”, the landing rate of 10 nM KIF5C-KLC1 on MTs (ATP) with 500 nM nesprin-4 WDAA (0.1 without) [1] is reported as 0.2 /μm/s/μM.
In the case of “KIF5A-KLC1 heterotetramer (from UniProt Q12840 1-1032; Q07866 1-573) (complex)”, the landing rate [2] is reported as 0.1.
For “KIF5B-E178A-mScarlet-StrepII (from UniProt P33176 1-963) (natural protein)”, the landing rate [3] was 6.2 /μm/s/μM.
With “KIF5B-H129A-mScarlet-StrepII (from UniProt P33176 1-963) (natural protein)” the landing rate [3] was 5.4 /μm/s/μM.
With “KIF5B-IAK/AAA-mScarlet-StrepII (from UniProt P33176 1-963) (natural protein)” the landing rate [3] was 7 /μm/s/μM.
Work on “KIF5B-KLC1 heterotetramer (from UniProt P33176 1-963; Q07866 1-573) (complex)” yielded a landing rate (Motors/μm/s/μm) [2] of 0.06.
In the case of “KIF5B-Δhinge (Δ505-610)-mScarlet-StrepII (from UniProt P33176 1-963) (natural protein)”, the landing rate [3] is reported as 22.8 /μm/s/μM.
With “KIF5C-KLC1 heterotetramer (from UniProt O60282 1-957; Q07866 1-573) (complex)” the landing rate [2] was 0.06.
For “full-length human KIF5B-mScarlet-StrepII (from UniProt P33176 1-963) (natural protein)”, the landing rate (Motors/μm/s/μm) [2] was 0.08.
Work on “tail-truncated human KIF5A (aa 1-416)-mScarlet-StrepII (from UniProt Q12840 1-416) (domain or fragment)” yielded a landing rate (motors/µm/s/µM) [2] of 162.
With “tail-truncated human KIF5B (aa 1-420)-mScarlet-StrepII (from UniProt P33176 1-420) (domain or fragment)” the landing rate (motors/µm/s/µM) [2] was 146.
“tail-truncated human KIF5C (aa 1-416)-mScarlet-StrepII (from UniProt O60282 1-416) (domain or fragment)” showed a landing rate (motors/µm/s/µM) [2] of 147.
